According to patent US20230086530A1 (SHANGHAI ESCUGEN BIOTECHNOLOGY, published 2023):
Read-outs that look alike come from different tables or passages of the source.

B1: DX-36698 VHH single-domain antibody (VHH)
VHH: QVQLVESGGGLVQAGGSLRLSCAASVRTFSIYAMGWFRQAPGKDREFVGAISGRGYTTYYVDSVKGRFTISRDNAKNTVYLQMNSLKPEDTAVYYCAADLYGSRRYADRESYDYWGQGTQVTVSS
notes: purified from E. coli (NiNTA)
B2: DX-36699 VHH single-domain antibody (VHH)
VHH: DVQLQASGGGSVEAGGSLTLSCLASGFYNMRWYRQAPGNERELVARIGIGGSTDYADSVKGRFTISRGNAKNMVHLQMNSLKPEDTAVYYCWGGGYWGQGTQVTVSS
notes: purified from E. coli (NiNTA)
B3: control antibody 5F9 (antibody, human IgG4 S228P, kappa)
heavy: not shown
light: DVLMTQTPLSLPVSLGDQASISCRSSQSIVYSNGNTYLGWYLQKPGQSPKLLIYKVSNRFSGVPDRFSGSGSGTDFTLKISRVEAEDLGVYHCFQGSHVPYTFGGGTKVEIKRTVAAPSVFIFPPSDEQLKSGTASVVCLLNNFYPREAKVQWKVDNALQSGNSQESVTEQDSKDSTYSLSSTLTLSKADYEKHKVYACEVTHQGLSSPVTKSFNRGEC
notes: also called 5F9 antibody

Assays:
[1] = biological target: T1, Human CD47 recombinant protein (Human CD47 His Tag), ACRO Biosystems Cat. No. CD7-H5227 (human, UniProt Q08722 19-139); test: competition ELISA: huCD47-His coated, VHH against 5 nM SIRPα-mIgG1
T1 construct: bought protein; also called huCD47-His; huCD47; not shown: His tag
Method: 100 μl of 1 μg/mL huCD47-His antigen (purchased from ACRO Biosystems, Cat. No. CD7-H5227) was add to a 96-well plate, and coated overnight at 4° C. The plate was washed three times with 250 μl of PBST, and added 100 μl of purified VHH to the final concentrations of 500, 50, 5, and 0.5 nM, respectively, and incubated at room temperature for 1 h. […] After washing the plate three times with PBST, goat anti-mouse HRP-conjugate (purchased from Invitrogen, Cat. No. 31430) diluted 1:5000 was added and incubated for 45 mins. After washing the plate three times with 250 μl of PBST, TMB (purchased from Cell Signaling Technology, Cat. No. 7004) as a chromogenic substrate was added and developed color for 10 mins. After quenching the reaction with 0.5M HCl, data was read on a microplate reader.

[2] = biological target: T2, human CD47 on the cell membrane surface of CD47 positive tumor cells (Raji, NUGC-4, Jurkat) (human, UniProt Q08722 19-323); test: FACS on Raji cells, VHH 0.5 µg/mL
T2 construct: whole, on cells; also called huCD47 on the cell membrane surface; cell surface CD47
Method: (§1) Antibodies that can bind to CD47 positive cells were screened by flow cytometry (FACS). Human Burkitt's lymphoma cells Raji (purchased from the Cell Bank of the Chinese Academy of Sciences, Cat. No. TCHu 44) were cultured in RPMI-1640 medium (purchased from Gibco, Cat. No. 11875-093) comprising 10% fetal bovine serum FBS (purchased from Gibco, Cat. No. 1009141) at 37° C. with 5% CO₂.
(§2) Raji cells were collected by centrifugation at 800 rpm for 3 mins, rinsed once with PBS+1% FBS and resuspended for counting. In a 96-well plate, 1×10⁵ Raji cells were added to each well, and then the VHH (purified) samples were added in a gradient dilution. The final concentrations of VHH were 5, 0.5, and 0.05 μg/mL, respectively. After mixing, it was mixed with Raji cells and incubateed at room temperature for 1 h. Raji cells were collected by centrifugation at 1400 rpm for 3 mins. […] The cells were rinsed twice with PBS+1% FBS and analyzed on an iQuePlus flow cytometer.
(§3) The mean fluorescence intensity (MFI) of the control well with only fluorescent secondary antibody was used as the mean fluorescence intensity of the background value, and the multiple of the mean fluorescence intensity of the sample and the mean fluorescence intensity of the background value was used to evaluate the binding strength of the VHH single-domain antibody to Raji cells.

[3] = biological target: T2, human CD47 on the cell membrane surface …; test: FACS on Raji cells, VHH 5 µg/mL
Method: as §1, §2, §3

[4] = biological target: T2, human CD47 on the cell membrane surface …; test: FACS on Raji cells, VHH 0.05 µg/mL
Method: as §1, §2, §3

[5] = biological target: T3, CD47 on cynomolgus macaque platelets (cynomolgus macaque, UniProt A0A5F8AK49 19-323 (rhesus entry)); test: flow cytometry, cynomolgus macaque platelets, animal 186#
T3 construct: whole, on cells

[6] = biological target: T4, CD47 on human erythrocytes (human, UniProt Q08722 19-323); test: flow cytometry, human erythrocytes
T4 construct: whole, on cells; Kept apart from m1 because the same antibodies behave differently on these cells

[7] = biological target: T1, Human CD47 recombinant protein (Human …); test: SPR BIAcore 8K, antibody captured by anti-human IgG Fc on CM5, huCD47 (His tag) in flow, 25 C, 1:1 model
Method: The binding time of the huCD47 to the antibody was 180 s, the dissociation time was 900 s, and the reaction temperature was 25° C. The binding constant ka, the dissociation constant kd and the affinity KD were calculated by FitGlobal using BIAcore 8K Evaluation software (GE Healthcare) according to the 1:1 binding model.

[8] = biological target: T5, CD47 on human platelets (human, UniProt Q08722 19-323); test: flow cytometry, human platelets
T5 construct: whole, on cells
Method: (§4) After the platelets were counted with a hemocytometer, the density of the platelets was adjusted to 1.5×10⁷/mL with PBS+1% FBS, and 100 μL of above sample was added to each well of a 96-well U-shaped plate. […] After incubating at 4° C. for 1 h, the samples were centrifuged at 1000 rpm for 3 mins and rinsed once with PBS+1% FBS. 100 μl of 1:1000 diluted goat anti-human IgG (H+L)-AlexaFluor488 (purchased from eBioscience, Cat. No. A11013) was added to each well, and incubated at 4° C. for 45 mins. The samples were centrifuged at 1000 rpm for 3 mins, rinsed twice with PBS+1% FBS, resuspended in 200 μl of PBS+1% FBS, and transferred to a flow tube for on-board detection.

[9] = biological target: T6, CD47 on cynomolgus macaque erythrocytes (cynomolgus macaque, UniProt A0A5F8AK49 19-323 (rhesus entry)); test: flow cytometry on cynomolgus macaque erythrocytes of 4 animals
T6 construct: whole, on cells

[10] = biological target: T3, CD47 on cynomolgus macaque platelets; test: flow cytometry, cynomolgus macaque platelets, animal 567#
[11] = biological target: T3, CD47 on cynomolgus macaque platelets; test: flow cytometry, cynomolgus macaque platelets, animal 194#
[12] = biological target: T5, CD47 on human platelets; test: flow cytometry, human platelets; remark: listed apart in the source
Method: as §4

[13] = biological target: T4, CD47 on human erythrocytes; test: flow cytometry, human erythrocytes, second individual
[14] = biological target: T7, biotinylated-CD47 (ACRO Biosystems Cat. No. CD7-H82E9) (UniProt Q08722 19-139, biotinylated (site not stated)); test: competition ELISA; blocked: biotinylated-CD47 binding to coated SIRPα-His
T7 construct: also called CD47 recombinant protein
Method: After rinsing 4 times with PBST, 200 μl of PBS+1% BSA was added to each well, blocking for 1 h at room temperature, and rinsing 4 times with PBST. […] The 96-well plate was rinsed 4 times with PBST, 100 μl of Steptavidin-HRP (Invitrogen #434323) diluted 1:2500 was added to each well, and incubated at room temperature for 1 h. After rinsing the 96-well plate four times with PBST, 100 μl of TMB substrate (Cell Signaling, Cat. No. 7004) was added to each well, and after color development at room temperature for 10 mins, 50 μl of stop solution was added to stop the reaction.

[15] = biological target: T4, CD47 on human erythrocytes; test: flow cytometry, human erythrocytes, first individual

Binder | IC50 [1] [nM] | Mean fluorescence intensity (multiple) [2] [fold] | Mean fluorescence intensity (multiple) [3] [fold] | Mean fluorescence intensity (multiple) [4] [fold] | EC50 (read off the curve) [5] [µg/mL] | EC50 (read off the curve) [6] [nM] | Kd [7] [nM] | koff [7] [s⁻¹] | kon [7] [M⁻¹ s⁻¹] | EC50 (read off the curve) [8] [µg/mL] | EC50 [9] [µg/mL] | EC50 (read off the curve) [10] [µg/mL] | EC50 (read off the curve) [11] [µg/mL] | EC50 (read off the curve) [12] [µg/mL] | EC50 (read off the curve) [13] [µg/mL] | IC50 (read off the curve) [14] [µg/mL] | EC50 (read off the curve) [15] [µg/mL]
B1 | 616 | 142 | 204 | 43.5 |  |  |  |  |  |  |  |  |  |  |  |  | 
B2 | 15 | 61.4 | 152 | 27.2 |  |  |  |  |  |  |  |  |  |  |  |  | 
B3 |  |  |  |  | ~0.3 | ~2 | 7.68 | 0.055 | 7.16e+06 | ~0.8 | 0.01 to 0.03 | ~0.5 | ~0.3 | ~0.02 | ~0.02 | ~0.3 | ~0.03
